The target in data set [1] is T1, MtACK (Methanosarcina thermophila acetate kinase) (Methanosarcina thermophila, UniProt P38502, G331A).
T1 construct: gene ackA; full-length, N-terminal His6 tag (pET15b, pETack), expressed in E. coli BL21(DE3), HisTrap purified; tag removal not mentioned
Nature of the data set: hydroxamate assay, A540. The data set is classed as biochemical. To be noted: saturating acetate when possible (max 1 M), MgCl2, 50 mM Tris pH 7.5, 300 mM hydroxylamine, 37 °C.

Data set [2] has as its target T2, MtACK (Methanosarcina thermophila acetate kinase) (Methanosarcina thermophila, UniProt P38502, G331Q).
T2 construct: gene ackA; full-length, N-terminal His6 tag (pET15b, pETack), expressed in E. coli BL21(DE3), HisTrap purified; tag removal not mentioned
Description: hydroxamate assay, A540. The class given is biochemical. To be noted: acetate not saturating (max 1 M), MgCl2, 50 mM Tris pH 7.5, 300 mM hydroxylamine, 37 °C.

The target in data set [3] is T3, MtACK (Methanosarcina thermophila acetate kinase) (Methanosarcina thermophila, UniProt P38502, G239A).
T3 construct: gene ackA; full-length, N-terminal His6 tag (pET15b, pETack), expressed in E. coli BL21(DE3), HisTrap purified; tag removal not mentioned
T3 sequence (P38502 whole entry G239A): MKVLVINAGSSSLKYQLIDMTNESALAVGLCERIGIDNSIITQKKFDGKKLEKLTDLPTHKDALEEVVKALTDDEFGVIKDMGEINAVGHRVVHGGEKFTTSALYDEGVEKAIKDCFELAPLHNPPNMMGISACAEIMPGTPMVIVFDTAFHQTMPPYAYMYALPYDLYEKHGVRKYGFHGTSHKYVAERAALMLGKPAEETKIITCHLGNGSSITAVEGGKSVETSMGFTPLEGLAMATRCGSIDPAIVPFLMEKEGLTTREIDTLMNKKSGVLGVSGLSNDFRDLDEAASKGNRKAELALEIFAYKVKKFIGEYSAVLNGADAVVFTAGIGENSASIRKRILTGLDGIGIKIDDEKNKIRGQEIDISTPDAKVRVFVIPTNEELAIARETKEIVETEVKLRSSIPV
Description: hydroxamate assay, A540. The data set is classed as biochemical. To be noted: saturating acetate when possible (max 1 M), MgCl2, 50 mM Tris pH 7.5, 300 mM hydroxylamine, 37 °C.

In data set [4] the target is T4, MtACK (Methanosarcina thermophila acetate kinase) (Methanosarcina thermophila, UniProt P38502, N211S).
T4 construct: gene ackA; full-length, N-terminal His6 tag (pET15b, pETack), expressed in E. coli BL21(DE3), HisTrap purified; tag removal not mentioned
T4 sequence (P38502 whole entry N211S): as the sequence (P38502 whole entry G239A) above, with N211S, A239G counted along it
Nature of the data set: hydroxamate assay, A540. The data set is classed as biochemical. To be noted: saturating acetate when possible (max 1 M), MgCl2, 50 mM Tris pH 7.5, 300 mM hydroxylamine, 37 °C.

Data set [5] addresses T5, MtACK (Methanosarcina thermophila acetate kinase) (Methanosarcina thermophila, UniProt P38502).
T5 construct: gene ackA; full-length, N-terminal His6 tag (pET15b, pETack), expressed in E. coli BL21(DE3), HisTrap purified; tag removal not mentioned
Nature of the data set: hydroxamate assay, A540. The class given is biochemical. The settings on record: saturating acetate when possible (max 1 M), MgCl2, 50 mM Tris pH 7.5, 300 mM hydroxylamine, 37 °C.

The target in data set [6] is T6, MtACK (Methanosarcina thermophila acetate kinase) (Methanosarcina thermophila, UniProt P38502, N211T).
T6 construct: gene ackA; full-length, N-terminal His6 tag (pET15b, pETack), expressed in E. coli BL21(DE3), HisTrap purified; tag removal not mentioned
T6 sequence (P38502 whole entry N211T): as the sequence (P38502 whole entry G239A) above, with N211T, A239G counted along it
Nature of the data set: hydroxamate assay, A540. The data set is classed as biochemical. The settings on record: saturating acetate when possible (max 1 M), MgCl2, 50 mM Tris pH 7.5, 300 mM hydroxylamine, 37 °C.

Data set [7] concerns the target T7, MtACK (Methanosarcina thermophila acetate kinase) (Methanosarcina thermophila, UniProt P38502, N211A).
T7 construct: gene ackA; full-length, N-terminal His6 tag (pET15b, pETack), expressed in E. coli BL21(DE3), HisTrap purified; tag removal not mentioned
Nature of the data set: hydroxamate assay, A540. The class given is biochemical. The settings on record: saturating acetate when possible (max 1 M), MgCl2, 50 mM Tris pH 7.5, 300 mM hydroxylamine, 37 °C.

Data set [8] deals with T8, MtACK (Methanosarcina thermophila acetate kinase) (Methanosarcina thermophila, UniProt P38502, G239S).
T8 construct: gene ackA; full-length, N-terminal His6 tag (pET15b, pETack), expressed in E. coli BL21(DE3), HisTrap purified; tag removal not mentioned
T8 sequence (P38502 whole entry G239S): as the sequence (P38502 whole entry G239A) above, with A239S counted along it
Description: hydroxamate assay, A540. The class given is biochemical. The settings on record: saturating acetate when possible (max 1 M), MgCl2, 50 mM Tris pH 7.5, 300 mM hydroxylamine, 37 °C.

Substrate in data set [9]: Nc1ccn([C@@H]2O[C@H](COP(=O)(O)OP(=O)(O)OP(=O)(O)O)[C@@H](O)[C@H]2O)c(=O)n1
Nature of the data set: hydroxamate assay, A540. The class given is biochemical, Methanosarcina thermophila. The settings on record: saturating acetate when possible (max 1 M), MgCl2, 50 mM Tris pH 7.5, 300 mM hydroxylamine, 37 °C.

Substrate in data set [10]: Nc1nc2c(ncn2[C@@H]2O[C@H](COP(=O)(O)OP(=O)(O)OP(=O)(O)O)[C@@H](O)[C@H]2O)c(=O)[nH]1
Description: hydroxamate assay, A540. To be noted: saturating acetate when possible (max 1 M), MgCl2, 50 mM Tris pH 7.5, 300 mM hydroxylamine, 37 °C. The class given is biochemical, Methanosarcina thermophila.

Substrate in data set [11]: Cc1cn([C@H]2C[C@H](O)[C@@H](COP(=O)(O)OP(=O)(O)OP(=O)(O)O)O2)c(=O)[nH]c1=O
Nature of the data set: hydroxamate assay, A540. The data set is classed as biochemical, Methanosarcina thermophila. To be noted: saturating acetate when possible (max 1 M), MgCl2, 50 mM Tris pH 7.5, 300 mM hydroxylamine, 37 °C.

Substrate in data set [12]: O=c1ccn([C@@H]2O[C@H](COP(=O)(O)OP(=O)(O)OP(=O)(O)O)[C@@H](O)[C@H]2O)c(=O)[nH]1
Nature of the data set: hydroxamate assay, A540. The class given is biochemical, Methanosarcina thermophila. To be noted: saturating acetate when possible (max 1 M), MgCl2, 50 mM Tris pH 7.5, 300 mM hydroxylamine, 37 °C.

Substrate in data set [13]: O=P(O)(O)OP(=O)(O)OP(=O)(O)OC[C@H]1O[C@@H](n2cnc3c(O)ncnc32)[C@H](O)[C@@H]1O
Nature of the data set: hydroxamate assay, A540. The data set is classed as biochemical, Methanosarcina thermophila. To be noted: saturating acetate when possible (max 1 M), MgCl2, 50 mM Tris pH 7.5, 300 mM hydroxylamine, 37 °C.

Substrate in the data set “purified protein”: CC(=O)O
Description: purified protein. The settings on record: ATP constant at optimal concentration, MgCl2, 50 mM Tris pH 7.5, 300 mM hydroxylamine, 37 °C.

From article PMC4390882 (Life, 2015) come the findings set out here.

Changes are numbered by the printed parent chain. Names and notes keep the numbering of the source.

T5 sequence (P38502 whole entry): as the sequence (P38502 whole entry G239A) above, with A239G counted along it
T2 sequence (P38502 whole entry G331Q): as the sequence (P38502 whole entry G239A) above, with A239G, G331Q counted along it
T7 sequence (P38502 whole entry N211A): as the sequence (P38502 whole entry G239A) above, with N211A, A239G counted along it

`Nc1ncnc2c1ncn2[C@@H]1O[C@H](COP(=O)(O)OP(=O)(O)OP(=O)(O)O)[C@@H](O)[C@H]1O` [ATP]: the Km (commonly the substrate concentration at which the rate is half of its maximum) came to 10.2 ± 0.4 mM in data set [1]; 18.4 ± 0.6 mM in data set [2]; 1.7 ± 0.1 mM in data set [3]; 6.8 ± 0.6 mM in data set [4]; 4 ± 0.3 mM in data set [5]; 7.1 ± 0.3 mM in [6]. Moreover, the Km stood at 5.9 ± 0.5 mM in data set [7] and 1.8 ± 0.1 mM in data set [8].

B1: MtACK (Methanosarcina thermophila acetate kinase) (Methanosarcina thermophila; G331A) (protein)
chain: MKVLVINAGSSSLKYQLIDMTNESALAVGLCERIGIDNSIITQKKFDGKKLEKLTDLPTHKDALEEVVKALTDDEFGVIKDMGEINAVGHRVVHGGEKFTTSALYDEGVEKAIKDCFELAPLHNPPNMMGISACAEIMPGTPMVIVFDTAFHQTMPPYAYMYALPYDLYEKHGVRKYGFHGTSHKYVAERAALMLGKPAEETKIITCHLGNGSSITAVEGGKSVETSMGFTPLEGLAMGTRCGSIDPAIVPFLMEKEGLTTREIDTLMNKKSGVLGVSGLSNDFRDLDEAASKGNRKAELALEIFAYKVKKFIGEYSAVLNGADAVVFTAAIGENSASIRKRILTGLDGIGIKIDDEKNKIRGQEIDISTPDAKVRVFVIPTNEELAIARETKEIVETEVKLRSSIPV
notes: full-length, N-terminal His6 tag (pET15b, pETack), expressed in E. coli BL21(DE3), HisTrap purified; tag removal not mentioned
B1: in the data set “hydroxamate assay, A540 [9]”, the Km is recorded as 15.7 ± 1.6 mM; the kcat (commonly the maximal rate divided by the concentration of active sites) came out at 17 ± 0.8 s⁻¹; the kcat/Km – broadly, the turnover number divided by the Michaelis constant – amounted to 1100 ± 70 M⁻¹ s⁻¹. Besides, in “hydroxamate assay, A540 [10]”, the Km was determined as 5.3 ± 0.2 mM, the kcat was 67 ± 1.0 s⁻¹ and the kcat/Km is 12600 ± 400 M⁻¹ s⁻¹.

B2: MtACK (Methanosarcina thermophila acetate kinase) (Methanosarcina thermophila) (protein)
chain: B1 chain with A331G
notes: as for B1
As to B2, the Km in the data set “hydroxamate assay, A540 [11]” was determined as 2.7 ± 0.1 mM; in “hydroxamate assay, A540 [12]”, 2.7 ± 0.3 mM; in the data set “hydroxamate assay, A540 [9]” it was 3.2 ± 0.4 mM; in “hydroxamate assay, A540 [13]”, 4.7 ± 0.2 mM; in “hydroxamate assay, A540 [10]”, 7.2 ± 0.9 mM; in “purified protein”, 14.3 ± 0.5 mM. Besides, the kcat in the data set “hydroxamate assay, A540 [11]” turned out to be 540 ± 9 s⁻¹; in “hydroxamate assay, A540 [12]”, 415 ± 19 s⁻¹; in “hydroxamate assay, A540 [9]” it was 460 ± 28 s⁻¹; in the data set “hydroxamate assay, A540 [13]”, 742 ± 10 s⁻¹; in “hydroxamate assay, A540 [10]”, 571 ± 22 s⁻¹. Further, the kcat/Km is 202000 ± 2000 M⁻¹ s⁻¹ in the data set “hydroxamate assay, A540 [11]”; 152000 ± 7000 M⁻¹ s⁻¹ in the data set “hydroxamate assay, A540 [12]”; 148000 ± 13000 M⁻¹ s⁻¹ in the data set “hydroxamate assay, A540 [9]”; 158000 ± 5000 M⁻¹ s⁻¹ in “hydroxamate assay, A540 [13]”; 80000 ± 7000 M⁻¹ s⁻¹ in the data set “hydroxamate assay, A540 [10]”.
